# What was measured:
# [1] = molecular target: spinophilin, endogenous in mouse striatal TSF (mouse (endogenous in striatum)) (UniProt Q6R891); test: co-IP; spinophilin immunoprecipitated with 4 µg goat spinophilin antibody from mouse striatal TSFs (WT or T286A-KI; PND21 or adult); immunoblot
# [2] = molecular target: spinophilin (GST fusion fragments) 1-300 (UniProt O35274); test: GST pull-down from striatal extract; settings: reference: wild-type mice; sites T286
# spinophilin (striatal) = spinophilin (striatal) (UniProt Q6R891); test: co-IP with spinophilin antibody, striatal extract; settings: reference: wild-type mice; sites T286
# Sequence of UniProt Q6R891 (Q6R891 whole entry, the tested form may be a part): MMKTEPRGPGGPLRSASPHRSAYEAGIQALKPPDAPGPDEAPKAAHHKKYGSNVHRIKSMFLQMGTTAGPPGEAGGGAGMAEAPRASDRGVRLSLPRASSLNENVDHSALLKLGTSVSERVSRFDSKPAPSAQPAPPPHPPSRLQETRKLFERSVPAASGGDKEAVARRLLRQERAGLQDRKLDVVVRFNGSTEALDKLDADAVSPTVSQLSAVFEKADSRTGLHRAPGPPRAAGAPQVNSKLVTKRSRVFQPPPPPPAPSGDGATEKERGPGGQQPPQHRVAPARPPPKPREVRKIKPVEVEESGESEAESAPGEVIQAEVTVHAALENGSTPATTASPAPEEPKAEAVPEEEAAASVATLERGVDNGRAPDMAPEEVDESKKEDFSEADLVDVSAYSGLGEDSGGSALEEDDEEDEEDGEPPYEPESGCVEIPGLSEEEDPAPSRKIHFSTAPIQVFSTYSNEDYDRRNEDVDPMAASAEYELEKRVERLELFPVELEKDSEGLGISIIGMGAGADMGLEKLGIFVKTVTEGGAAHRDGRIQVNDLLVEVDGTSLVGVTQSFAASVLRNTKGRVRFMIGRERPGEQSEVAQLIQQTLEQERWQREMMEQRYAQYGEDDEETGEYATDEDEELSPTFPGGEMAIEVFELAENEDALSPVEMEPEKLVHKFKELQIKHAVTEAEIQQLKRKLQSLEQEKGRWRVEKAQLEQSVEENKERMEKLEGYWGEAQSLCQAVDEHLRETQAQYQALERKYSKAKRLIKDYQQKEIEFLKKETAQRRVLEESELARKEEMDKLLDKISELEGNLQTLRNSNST
Substance,"reduction of CaMKIIα in spinophilin immune complexes, T286A-KI against WT [1]",binding against the reference [2],other: reduction relative to wild type (spinophilin (striatal))
"CaMKIIα T286A, endogenous in T286A-KI mouse striatum (from UniProt P11798 1-478) (enzyme)",50%,,
CaMKIIα (from UniProt P11798) T286A knock-in mice,,weaker,weaker
